Measurements: patent US20110118131A1 (published 2011)
Where a chain is given by its changes, count along the chain named. Names may count otherwise.

B1: XPA23 Fab, heavy chain G102H (Fab, V domains shown)
VH: EVQLLESGGGLVQPGGSLRLSCAASGFTFSKYFMFWVRQAPGKGLEWVSVISPSGGMTRYADSVKGRFTISRDNSKNTLYLQMNSLRAEDTAVYYCARVGYHGNSDYWGQGTLVTVSS
VL: DIQMTQSPSSVSASVGDRLTIICRASQDINRWLAWYQQTPGNAPKLLIHSATSLQSGVPSRFSGSGSGTDFTLTINSLQPEDFATYYCQQADSFPLTFGGGTKVEIK
B2: XPA23 Fab, heavy chain G102K (Fab, V domains shown)
VH: B1 VH with H102K
VL: B1 VL
B3: XPA23 Fab, heavy chain G102N (Fab, V domains shown)
VH: B1 VH with H102N
VL: B1 VL
B4: XPA23 Fab, heavy chain G102Q (Fab, V domains shown)
VH: B1 VH with H102Q
VL: B1 VL
B5: XPA23 Fab, heavy chain G102R (Fab, V domains shown)
VH: B1 VH with H102R
VL: B1 VL
B6: XPA23 Fab, heavy chain G102W (Fab, V domains shown)
VH: B1 VH with H102W
VL: B1 VL
B7: XPA23 Fab, heavy chain G102Y (Fab, V domains shown)
VH: B1 VH with H102Y
VL: B1 VL
B8: XPA23 Fab, heavy chain G103D (Fab, V domains shown)
VH: B1 VH with H102G, G103D
VL: B1 VL
B9: XPA23 Fab, heavy chain G103E (Fab, V domains shown)
VH: B1 VH with H102G, G103E
VL: B1 VL
B10: XPA23 Fab, heavy chain G103F (Fab, V domains shown)
VH: B1 VH with H102G, G103F
VL: B1 VL
B11: XPA23 Fab, heavy chain G103K (Fab, V domains shown)
VH: B1 VH with H102G, G103K
VL: B1 VL
B12: XPA23 Fab, heavy chain G103Q (Fab, V domains shown)
VH: B1 VH with H102G, G103Q
VL: B1 VL
B13: XPA23 Fab, heavy chain G103R (Fab, V domains shown)
VH: B1 VH with H102G, G103R
VL: B1 VL
B14: XPA23 Fab, heavy chain G103W (Fab, V domains shown)
VH: B1 VH with H102G, G103W
VL: B1 VL
B15: XPA23 Fab, heavy chain I51D (Fab, V domains shown)
VH: B1 VH with I51D, H102G
VL: B1 VL
B16: XPA23 Fab, heavy chain I51E (Fab, V domains shown)
VH: B1 VH with I51E, H102G
VL: B1 VL
B17: XPA23 Fab, heavy chain I51F (Fab, V domains shown)
VH: B1 VH with I51F, H102G
VL: B1 VL
B18: XPA23 Fab, heavy chain I51H (Fab, V domains shown)
VH: B1 VH with I51H, H102G
VL: B1 VL
B19: XPA23 Fab, heavy chain I51K (Fab, V domains shown)
VH: B1 VH with I51K, H102G
VL: B1 VL
B20: XPA23 Fab, heavy chain I51N (Fab, V domains shown)
VH: B1 VH with I51N, H102G
VL: B1 VL
B21: XPA23 Fab, heavy chain I51Q (Fab, V domains shown)
VH: B1 VH with I51Q, H102G
VL: B1 VL
B22: XPA23 Fab, heavy chain I51R (Fab, V domains shown)
VH: B1 VH with I51R, H102G
VL: B1 VL
B23: XPA23 Fab, heavy chain I51S (Fab, V domains shown)
VH: B1 VH with I51S, H102G
VL: B1 VL
B24: XPA23 Fab, heavy chain I51W (Fab, V domains shown)
VH: B1 VH with I51W, H102G
VL: B1 VL
B25: XPA23 Fab, heavy chain I51Y (Fab, V domains shown)
VH: B1 VH with I51Y, H102G
VL: B1 VL
B26: XPA23 Fab, heavy chain K31D (Fab, V domains shown)
VH: B1 VH with K31D, H102G
VL: B1 VL
B27: XPA23 Fab, heavy chain K31E (Fab, V domains shown)
VH: B1 VH with K31E, H102G
VL: B1 VL
B28: XPA23 Fab, heavy chain K31F (Fab, V domains shown)
VH: B1 VH with K31F, H102G
VL: B1 VL
B29: XPA23 Fab, heavy chain K31H (Fab, V domains shown)
VH: B1 VH with K31H, H102G
VL: B1 VL
B30: XPA23 Fab, heavy chain K31N (Fab, V domains shown)
VH: B1 VH with K31N, H102G
VL: B1 VL
B31: XPA23 Fab, heavy chain K31Q (Fab, V domains shown)
VH: B1 VH with K31Q, H102G
VL: B1 VL
B32: XPA23 Fab, heavy chain K31R (Fab, V domains shown)
VH: B1 VH with K31R, H102G
VL: B1 VL
B33: XPA23 Fab, heavy chain K31S (Fab, V domains shown)
VH: B1 VH with K31S, H102G
VL: B1 VL
B34: XPA23 Fab, heavy chain K31W (Fab, V domains shown)
VH: B1 VH with K31W, H102G
VL: B1 VL
B35: XPA23 Fab, heavy chain K31Y (Fab, V domains shown)
VH: B1 VH with K31Y, H102G
VL: B1 VL
B36: XPA23 Fab, heavy chain M57D (Fab, V domains shown)
VH: B1 VH with M57D, H102G
VL: B1 VL
B37: XPA23 Fab, heavy chain M57E (Fab, V domains shown)
VH: B1 VH with M57E, H102G
VL: B1 VL
B38: XPA23 Fab, heavy chain M57F (Fab, V domains shown)
VH: B1 VH with M57F, H102G
VL: B1 VL
B39: XPA23 Fab, heavy chain M57H (Fab, V domains shown)
VH: B1 VH with M57H, H102G
VL: B1 VL
B40: XPA23 Fab, heavy chain M57K (Fab, V domains shown)
VH: B1 VH with M57K, H102G
VL: B1 VL
B41: XPA23 Fab, heavy chain M57N (Fab, V domains shown)
VH: B1 VH with M57N, H102G
VL: B1 VL
B42: XPA23 Fab, heavy chain M57Q (Fab, V domains shown)
VH: B1 VH with M57Q, H102G
VL: B1 VL
B43: XPA23 Fab, heavy chain M57R (Fab, V domains shown)
VH: B1 VH with M57R, H102G
VL: B1 VL
B44: XPA23 Fab, heavy chain M57S (Fab, V domains shown)
VH: B1 VH with M57S, H102G
VL: B1 VL
B45: XPA23 Fab, heavy chain M57Y (Fab, V domains shown)
VH: B1 VH with M57Y, H102G
VL: B1 VL
B46: XPA23 Fab, heavy chain N104D (Fab, V domains shown)
VH: B1 VH with H102G, N104D
VL: B1 VL

Target: T1, IL-1beta (UniProt P01584 117-269)
T1 construct: also called IL-1β
Assay: Biacore

Row | Binder | binding result | fold difference in affinity vs parental [fold]
1 | B1 | no binding | –
2 | B2 | no binding | –
3 | B3 | – | 1.17
4 | B4 | no binding | –
5 | B5 | no binding | –
6 | B6 | no binding | –
7 | B7 | no binding | –
8 | B8 | no binding | –
9 | B9 | no binding | –
10 | B10 | no binding | –
11 | B11 | no binding | –
12 | B12 | no binding | –
13 | B13 | no binding | –
14 | B14 | no binding | –
15 | B15 | – | 0.07
16 | B16 | – | 0.73
17 | B17 | – | 0.9
18 | B18 | – | 0.08
19 | B19 | – | 0.11
20 | B20 | – | 0.68
21 | B21 | – | 0.83
22 | B22 | – | 0.1
23 | B23 | – | 0.69

Row | Binder | binding result | fold difference in affinity vs parental [fold]
24 | B24 | no binding | –
25 | B25 | – | 1.75
26 | B26 | – | 0.04
27 | B27 | no binding | –
28 | B28 | – | 0.05
29 | B29 | – | 1.11
30 | B30 | no binding | –
31 | B31 | no binding | –
32 | B32 | – | 0.9
33 | B33 | no binding | –
34 | B34 | – | 0.84
35 | B35 | – | 0.04
36 | B36 | no binding | –
37 | B37 | no binding | –
38 | B38 | – | 1.03
39 | B39 | – | 0.08
40 | B40 | – | 0.04
41 | B41 | – | 0.03
42 | B42 | – | 0.02
43 | B43 | – | 0.06
44 | B44 | – | 0.04
45 | B45 | – | 0.86
46 | B46 | no binding | –
